T1: L-Malate dehydrogenase (UniProt P00346)
T1 sequence: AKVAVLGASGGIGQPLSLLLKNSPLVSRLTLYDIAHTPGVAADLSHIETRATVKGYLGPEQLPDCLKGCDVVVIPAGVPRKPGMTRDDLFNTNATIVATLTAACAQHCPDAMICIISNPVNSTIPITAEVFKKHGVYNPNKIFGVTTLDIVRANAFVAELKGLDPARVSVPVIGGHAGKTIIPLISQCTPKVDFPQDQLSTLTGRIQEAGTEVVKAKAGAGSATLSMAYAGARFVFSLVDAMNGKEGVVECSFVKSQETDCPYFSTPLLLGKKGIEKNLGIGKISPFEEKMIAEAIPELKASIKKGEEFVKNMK


Columns and labels:
[1] = biological target: insulin
[2] = biological target: T1, L-Malate dehydrogenase

DTT-induced aggregation of insulin with F113Y (5:1 substrate to sHsp), reduction in the peak level of light scattering at 340 nm [1] [%] | heat-induced (55 °C) aggregation of MDH with R116C, reduction of light scatter at 340 nm against substrate alone [2] [%] | Binder
> 50 |  | HspB5 F113Y (natural protein) MDIAIHHPWIRRPFFPFHSPSRLFDQFFGEHLLESDLFPTSTSLSPFYLRPPSFLRAPSWFDTGLSEMRLEKDRFSVNLDVKHFSPEELKVKVLGDVIEVHGKHEERQDEHGYISREFHRKYRIPADVDPLTITSSLSSDGVLTVNGPRKQVSGPERTIPITREEKPAVTAAPKK
 | 16 | HspB5 R116C (natural protein) MDIAIHHPWIRRPFFPFHSPSRLFDQFFGEHLLESDLFPTSTSLSPFYLRPPSFLRAPSWFDTGLSEMRLEKDRFSVNLDVKHFSPEELKVKVLGDVIEVHGKHEERQDEHGFISCEFHRKYRIPADVDPLTITSSLSSDGVLTVNGPRKQVSGPERTIPITREEKPAVTAAPKK

Source: paper PMC10778692
